Reference: US20250092135A1 (NANJING LEADS BIOLABS, published 2025)
Positions count from the first letter of the chain named. Names and notes keep the numbering of the source.

T1: cynomolgus monkey GPRC5D protein (cynomolgus monkey, UniProt Q9NZD1 1-343 (human entry))
T1 construct: also called CynoGPRC5D; on HEK293T-CynoGPRC5D cells
T1 chain: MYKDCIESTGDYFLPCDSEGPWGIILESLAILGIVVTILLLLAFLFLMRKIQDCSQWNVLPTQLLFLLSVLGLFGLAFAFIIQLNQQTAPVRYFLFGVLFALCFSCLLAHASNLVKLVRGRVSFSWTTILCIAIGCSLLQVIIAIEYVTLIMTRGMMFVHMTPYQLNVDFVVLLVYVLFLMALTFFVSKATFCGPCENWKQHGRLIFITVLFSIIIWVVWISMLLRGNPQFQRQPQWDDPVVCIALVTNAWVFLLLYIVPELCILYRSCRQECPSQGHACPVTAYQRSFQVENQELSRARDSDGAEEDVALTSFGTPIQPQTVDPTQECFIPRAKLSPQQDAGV

T2: human MUC16 protein (ECT_TM huMuc16) on 293T cells (human)
T2 chain: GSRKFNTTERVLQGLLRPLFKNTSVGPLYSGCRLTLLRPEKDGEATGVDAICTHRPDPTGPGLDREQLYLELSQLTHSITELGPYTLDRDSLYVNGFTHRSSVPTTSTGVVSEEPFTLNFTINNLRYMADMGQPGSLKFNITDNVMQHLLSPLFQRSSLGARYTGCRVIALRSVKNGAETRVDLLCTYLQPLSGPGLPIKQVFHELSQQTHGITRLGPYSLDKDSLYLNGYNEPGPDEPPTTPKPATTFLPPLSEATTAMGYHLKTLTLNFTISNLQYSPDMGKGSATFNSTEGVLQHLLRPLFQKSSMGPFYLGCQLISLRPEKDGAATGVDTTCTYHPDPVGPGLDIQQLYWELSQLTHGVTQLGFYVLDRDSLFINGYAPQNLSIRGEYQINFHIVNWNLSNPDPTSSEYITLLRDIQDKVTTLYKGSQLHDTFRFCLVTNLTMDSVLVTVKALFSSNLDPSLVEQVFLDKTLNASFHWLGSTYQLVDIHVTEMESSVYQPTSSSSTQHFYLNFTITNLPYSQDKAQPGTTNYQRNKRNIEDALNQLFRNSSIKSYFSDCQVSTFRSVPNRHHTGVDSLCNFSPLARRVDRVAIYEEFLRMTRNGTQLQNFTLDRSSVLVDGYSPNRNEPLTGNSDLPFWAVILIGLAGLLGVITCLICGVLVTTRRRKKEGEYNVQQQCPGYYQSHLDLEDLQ

T3: Human MUC16-His (human)
T3 construct: The entry includes the C-terminal 6xHis tag; also called membrane-proximal end of the extracellular region of the human MUC16 protein; Human MUC16 protein
T3 chain: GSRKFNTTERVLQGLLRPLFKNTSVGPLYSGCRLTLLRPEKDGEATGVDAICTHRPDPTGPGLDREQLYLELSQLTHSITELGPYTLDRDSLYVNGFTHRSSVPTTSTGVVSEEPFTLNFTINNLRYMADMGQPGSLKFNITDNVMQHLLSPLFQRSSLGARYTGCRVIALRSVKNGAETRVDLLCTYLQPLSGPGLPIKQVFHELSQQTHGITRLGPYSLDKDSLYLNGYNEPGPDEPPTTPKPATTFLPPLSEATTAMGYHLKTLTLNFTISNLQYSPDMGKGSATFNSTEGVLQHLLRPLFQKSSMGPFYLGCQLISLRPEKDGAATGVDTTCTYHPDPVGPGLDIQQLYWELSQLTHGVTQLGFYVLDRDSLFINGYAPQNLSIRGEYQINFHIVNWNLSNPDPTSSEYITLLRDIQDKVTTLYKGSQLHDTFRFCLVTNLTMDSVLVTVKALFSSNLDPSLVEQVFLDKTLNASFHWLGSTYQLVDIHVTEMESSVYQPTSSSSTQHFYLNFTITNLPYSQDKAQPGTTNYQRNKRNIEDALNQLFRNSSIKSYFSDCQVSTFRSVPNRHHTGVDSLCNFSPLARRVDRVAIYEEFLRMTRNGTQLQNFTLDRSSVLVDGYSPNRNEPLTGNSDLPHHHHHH

T4: Rhesus monkey MUC16-His (rhesus monkey)
T4 construct: The entry includes the C-terminal 6xHis tag; also called membrane-proximal end of the extracellular region of the rhesus monkey MUC16 protein
T4 chain: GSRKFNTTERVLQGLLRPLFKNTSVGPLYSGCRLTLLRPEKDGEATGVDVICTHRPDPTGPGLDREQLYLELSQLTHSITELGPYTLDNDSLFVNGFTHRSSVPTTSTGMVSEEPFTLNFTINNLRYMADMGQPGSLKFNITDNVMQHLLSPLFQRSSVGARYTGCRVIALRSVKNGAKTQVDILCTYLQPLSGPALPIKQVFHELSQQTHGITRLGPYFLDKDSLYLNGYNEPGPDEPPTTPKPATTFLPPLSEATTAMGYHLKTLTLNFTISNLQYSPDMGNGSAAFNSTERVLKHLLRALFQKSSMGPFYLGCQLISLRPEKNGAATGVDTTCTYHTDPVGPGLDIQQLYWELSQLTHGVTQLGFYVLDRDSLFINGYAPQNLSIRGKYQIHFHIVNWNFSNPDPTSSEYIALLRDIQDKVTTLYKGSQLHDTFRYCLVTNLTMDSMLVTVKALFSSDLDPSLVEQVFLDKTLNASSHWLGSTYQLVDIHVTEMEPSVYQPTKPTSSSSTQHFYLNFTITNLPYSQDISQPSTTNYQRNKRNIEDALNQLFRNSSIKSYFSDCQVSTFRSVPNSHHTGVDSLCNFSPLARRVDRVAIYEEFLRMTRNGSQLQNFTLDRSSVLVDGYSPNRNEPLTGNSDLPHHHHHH

T5: rhesus monkey MUC16 protein (ECT_TM RhMuc16) on 293T cells (rhesus monkey)
T5 chain: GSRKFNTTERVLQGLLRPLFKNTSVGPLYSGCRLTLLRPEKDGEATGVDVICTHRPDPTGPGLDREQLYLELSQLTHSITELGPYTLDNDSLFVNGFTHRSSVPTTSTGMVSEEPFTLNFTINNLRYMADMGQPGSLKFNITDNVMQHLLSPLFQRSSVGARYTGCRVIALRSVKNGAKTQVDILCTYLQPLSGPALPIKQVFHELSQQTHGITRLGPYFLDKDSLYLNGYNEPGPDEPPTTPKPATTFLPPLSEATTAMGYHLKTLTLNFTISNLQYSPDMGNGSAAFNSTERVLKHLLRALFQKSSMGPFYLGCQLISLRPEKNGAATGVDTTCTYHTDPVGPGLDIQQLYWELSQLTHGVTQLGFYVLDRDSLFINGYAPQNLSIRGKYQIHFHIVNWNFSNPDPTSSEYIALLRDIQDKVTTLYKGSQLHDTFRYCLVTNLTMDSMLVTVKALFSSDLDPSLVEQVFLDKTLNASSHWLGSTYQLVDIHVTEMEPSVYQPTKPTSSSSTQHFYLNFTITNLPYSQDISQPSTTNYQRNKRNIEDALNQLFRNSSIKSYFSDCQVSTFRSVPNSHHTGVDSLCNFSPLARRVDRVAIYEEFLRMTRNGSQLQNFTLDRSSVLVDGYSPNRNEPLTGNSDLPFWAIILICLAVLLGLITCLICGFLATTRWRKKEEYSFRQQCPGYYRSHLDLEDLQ

B1: chimeric antibody 4B9E9 (antibody, human IgG1, kappa, V domains shown)
VH: DVQLVESGGGLVQPRGSRKLSCAASGFTFSSFGMHWVRQAPEKGLEWVAYISSDSNTIYYADTVQGRFTISRDNPKNTLFLQMTRLRSEDTAMYYCARNPWYFDVWGAGTTVTVSS
VL: DVLMTQTPLSLPVSLGDQVSISCRSSQSIVHSNGNTYLEWFLQKPGQSPKLLIYKVSNRFSGVPDRFSGSGSGTDFTLKISRVEAEDLGIYYCFQGSHIPPTFGGGTKLEIKR
notes: Murine variable regions on human IgG1 and kappa constant regions
B2: murine anti-MUC16 antibody 776.1 (antibody, human IgG1, kappa, L234A L235A, V domains shown)
VH: EVQLQQSGPELVKPGASVKISCKASGYTFTDYNIHWVKQSHGKILEWIGYIYPYNGVSDYNQNFKSKATLIVDNSSNTAYMELRSLTSEDSAVYYCARWDFGSGYYFDYWGQGTTLTVSS
VL: QIVLSQSPAILFASPGETVTMTCRASSSVIYMCWNQQKPGSSPKPWIYGTSTLASGVPTRFSGSGSGTSYSLTISRVEAEDAATYYCQQWSSNPFTFGSGTKLEIKR
notes: Murine variable regions on human IgG1 (L234A, L235A, D265A, P329A) and kappa constant regions
B3: anti-MUC16 antibody 776.1(C33A) (antibody, human IgG1, kappa, L234A L235A, V domains shown)
VH: B2 VH
VL: B2 VL with C33A

What was measured:
[1] = molecular target: T1, cynomolgus monkey GPRC5D protein; assay: flow cytometry, HEK293T-CynoGPRC5D cells (sheet: 293T-cynoGPRC5D), PE anti-human IgG Fc secondary, MFI
Method: (§1) Whether the anti-GPRC5D chimeric antibodies in the present invention could bind to the human GPRC5D protein or cynomolgus monkey GPRC5D protein stably expressed on the cell surface was determined by cell binding experiments.
(§2) The HEK293T-HuGPRC5D cell line and HEK293T-CynoGPRC5D shown in Table 2 were subjected to enzymatic digestion to obtain single cell suspensions of the two types of cells. The single cell suspensions were centrifuged at room temperature at 400×g, and then the media were discarded. The resulting cell pellets were washed once with PBS and then resuspended in the serially diluted anti-GPRC5D chimeric antibodies shown in Table 5 and the control antibody GC5B596 (at an initial concentration of 133.3 nM, 4-fold gradient dilution, 8 concentrations in total), and the cells were incubated at 4° C. for 30 min. The cells were washed once with PBS, and then fluorescent secondary antibody R-PE-conjugated AffiniPure Goat Anti-Human IgG, Fcγ Fragment Specific (Jackson ImmunoResearch, Cat #109-116-098) diluted in a 1:200 ratio was added. The cells were incubated in the dark at 4° C. for 30 min. The cells were washed twice with PBS and then resuspended, and finally, two-channel fluorescence signals were detected using a BD Accuri C5 (BD Bioscience) flow cytometer.

human GPRC5D protein = molecular target: T6, human GPRC5D protein (human, UniProt Q9NZD1 1-345); assay: flow cytometry, HEK293T-HuGPRC5D cells (sheet: 293T-huGPRC5D), PE anti-human IgG Fc secondary, MFI
T6 construct: NCI-H929 cells express it endogenously in the functional assays; also called HuGPRC5D; huGPRC5D
T6 sequence (Q9NZD1 whole entry): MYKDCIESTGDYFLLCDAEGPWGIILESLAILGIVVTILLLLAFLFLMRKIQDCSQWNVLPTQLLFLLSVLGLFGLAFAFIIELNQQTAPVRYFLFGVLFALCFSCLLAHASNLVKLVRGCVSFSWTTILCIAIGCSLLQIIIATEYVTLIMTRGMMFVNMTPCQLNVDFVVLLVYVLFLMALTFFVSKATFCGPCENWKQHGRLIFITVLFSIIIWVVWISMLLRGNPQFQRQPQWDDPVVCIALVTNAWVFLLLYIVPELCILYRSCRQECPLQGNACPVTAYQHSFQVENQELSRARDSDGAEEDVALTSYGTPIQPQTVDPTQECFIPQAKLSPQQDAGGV
Method: as §1, §2

[2] = molecular target: T2, human MUC16 protein (ECT_TM huMuc16) on …; assay: flow cytometry, 293T/hMUC16 cells, PE anti-human IgG Fc secondary, MFI; EC50 table under the plot, unit from the axis Conc.(nM)
Method: (§3) The serially diluted anti-human MUC16 antibodies (at an initial concentration of 200 nM, 4-fold dilution, 8 points in total) obtained in the present application were added to the cells, and the cells were incubated at 4° C. for 30 min. The cells were washed twice with PBS, and then fluorescent secondary antibody R-PE-conjugated AffiniPure Goat Anti-Human IgG, Fcγ Fragment Specific (Jackson ImmunoResearch, Cat #109-116-098) was added. The cells were incubated at 4° C. for 30 min. The cells were washed twice with PBS and then resuspended, and finally, fluorescence signals were detected using a BD Accuri C5 (BD Bioscience) flow cytometer.

Human MUC16-His = molecular target: T3, Human MUC16-His; assay: BLI (ForteBio Octet RED96), antibody on AHC sensor, 50 nM antigen, 1:1 model
Excerpt: (§4) The binding affinity of the anti-MUC-16 antibodies for the membrane-proximal end of the extracellular region of the human MUC16 protein (human MUC16-His, Table 26) and the membrane-proximal end of the extracellular region of the rhesus monkey MUC16 protein (rhesus monkey MUC16-His, Table 26) was detected by ForteBio Octet RED96, respectively. According to the manufacturer's instructions, an AHC sensor (ForteBio, Cat #18-5060) was placed in a running buffer (lx PBS, Hyclone, Cat #SH30256.01, containing 0.02% Tween 20, pH 7.0) and pre-equilibrated at room temperature for 10 min. In a 96-well plate, the kinetic assay was performed according to the following steps: a) equilibrating the baseline for 100 s with the running buffer; b) diluting the anti-MUC-16 antibodies with the running buffer to 5 μg/mL, immobilizing for 200 s, and stopping; c) equilibrating the baseline for 300 s with the running buffer; and d) diluting the human or rhesus monkey MUC16 protein with the running buffer to 50 nM, binding for 200 s, and dissociating for 600 s. The experimental data were fitted and calculated using a Fortebio Data Analysis software 1:1 binding model.

Rhesus monkey MUC16-His = molecular target: T4, Rhesus monkey MUC16-His; assay: as above
Excerpt: as §4

[3] = molecular target: T5, rhesus monkey MUC16 protein (ECT_TM …); assay: flow cytometry, 293T/rhesus MUC16 cells, PE anti-human IgG Fc secondary, MFI; EC50 table under the plot, unit from the axis Conc.(nM)
Method: as §3

Binder	binding result [1]	EC50 (read off the curve) (human GPRC5D protein)	EC50 [2]	Kd (Human MUC16-His)	koff (Human MUC16-His)	kon (Human MUC16-His)	Kd (Rhesus monkey MUC16-His)	koff (Rhesus monkey MUC16-His)	kon (Rhesus monkey MUC16-His)	EC50 [3]
B1	binds	~3 nM								
B2			2.58 nM	0.359 nM	0.000168 s⁻¹	468000 M⁻¹ s⁻¹	1.82 nM	0.00156 s⁻¹	856000 M⁻¹ s⁻¹	4.87 nM
B3			8.72 nM	1.36 nM	0.000348 s⁻¹	255000 M⁻¹ s⁻¹	1.2 nM	0.000945 s⁻¹	791000 M⁻¹ s⁻¹	11.1 nM
